According to patent US5831007, “Human receptor for interleukin-12” (Hoffmann-La Roche Inc., dated 1998):

Assays:
[1] = biological target: T1, Recombinant human low affinity IL-12 receptor protein (clone No. 5) expressed in COS cells (human); assay: IL-12 binding to transfected COS cells; told in the discussion
[2] = biological target: Human IL-12 receptor subunit monomer (on murine CTLL transfectants, which only express monomers); monomer form … (human); assay: IL-12 binding to murine CTLL transfectants stably expressing the IL-12 receptor subunit (monomers only)
[3] = biological target: T1, Recombinant human low affinity IL-12 …; assay: steady state binding of 125I-IL-12 to rIL-12R expressing COS cells, Scatchard (FIGS. 4A and 4B)
Description: The characteristics of the protein bound by mAb 2-4E6 fulfilled standard criterion for an IL-12R and therefore 2-4E6 was used in an expression cloning strategy to isolate a cDNA coding for the human IL-12R. A cDNA coding for the human IL-12R was isolated by this method (U. Gubler and A. O. Chua, unpublished observations). The IL-12R cDNA was engineered in a mammalian cell expression vector, transfected into COS-7 cells and the specificity for binding of ^125I-IL-12 and ^125I-2-4E6 was determined. […] This low affinity IL-12 binding site corresponds to the low affinity site seen in the binding assays with human cells that naturally express IL-12R. The binding of ^125I-2-4E6 to, rIL-12R expressed in the COS cells is saturable and specific and identifies approximately 500,000 sites/cell (FIGS. 4C and 4D).
For FIGS. 4A and 4B, COS cells were transfected with a plasmid expressing human rIL-12R as. described. Three days later, transfected cells (1×10^4 cells) were incubated for 2 hrs at room temperature with increasing concentration of ^125I-IL-12 in the absence (o) or presence (□) of 50 nM unlabeled IL-12. Total (o) and non-specific (□) cell bound radioactivity were determined as described. Specific binding of ^125I-IL-12 (▲) was calculated by subtracting non-specific binding from total binding.

[4] = biological target: T1, Recombinant human low affinity IL-12 …; assay: IL-12 binding to intact transfected COS cells; told in the discussion
[5] = biological target: T1, Recombinant human low affinity IL-12 …; assay: equilibrium binding of labeled IL-12 to COS cells electroporated with clone number 5, Scatchard, single site (FIG. 19A)
Description: (§1) Binding assays with labeled IL-12 or labeled 2-4E6 antibody were run as described hereinabove under anti human IL-12 receptor antibody. The binding data were analyzed and Kd values were calculated according to Scatchard, using the LIGAND program discussed hereinabove under anti human IL-12 receptor antibody. In vivo labeling (6 hours) of COS cells (3 ×10^5 cells per 35 mm diameter tissue culture dish) with […] was performed 3 days after transfection as described (Molecular Cloning Manual). Cells were washed in PBS and lysed in CHAPS lysis buffer (10 mM CHAPS-300 mM Nacl-50 mM Tris-HCl pH 7.4-2 mg/ml lodoacetamide-0.17 mg/ml PMSF), precleared by incubation with protein G Sepharose beads (50 µl packed beads per ml, Genex) and normal mouse serum (25% final concentration) at 4° C. overnight. […]
(§2) IL-12 receptor cDNA (clone number 5) (SEQ ID NO:1) was electroporated into COS cells and equilibrium binding of labeled human and murine IL-12 to the cells was performed and analyzed as described (R. Chizzonite, et al., 1992, J. Immunol., 148:3117). […] After transformation by the method of Scatchard, the equilibrium binding data was best described by a single receptor site model as determined by the LIGAND program. The site numbers indicated in FIG. 19 are calculated assuming that all cells are expressing receptors. […]

[6] = biological target: T1, Recombinant human low affinity IL-12 …; assay: equilibrium binding of labeled IL-12 to COS cells electroporated with clone number 5, Scatchard, single site (FIG. 19B)
Description: as §1, §2

Kd [1] [nM]	Kd [2] [nM]	Kd [3] [nM]	Kd [4] [nM]	Kd [5] [nM]	Kd [6] [nM]	Binder
~3	≥ 50	2 to 6	2 to 5	3.4	–	Recombinant human IL-12 (Interleukin-12) (ligand) chain 1: IWELKKDVYVVELDWYPDAPGEMVVLTCDTPEEDGITWTLDQSSEVLGSGKTLTIQVKEFGDAGQYTCHKGGEVLSHSLLLLHKKEDGIWSTDILKDQKEPKNKTFLRCEAKNYSGRFTCWWLTTISTDLTFSVKSSRGSSDPQGVTCGAATLSAERVRGDNKEYEYSVECQEDSACPAAEESLPIEVMVDAVHKLKYENYTSSFFIRDIIKPDPPKNLQLKPLKNSRQVEVSWEYPDTWSTPHSYFSLTFCVQVQGKSKREKKDRVFTDKTSATVICRKNASISVRAQDRYYSSSWSEWASVPCS chain 2: RNLPVATPDPGMFPCLHHSQNLLRAVSNMLQKARQTLEFYPCTSEEIDHEDITKDKTSTVEACLPLELTKNESCLNSRETSFITNGSCLASRKTSFMMALCLSSIYEDLKMYQVEFKTMNAKLLMDPKRQIFLDQNMLAVIDELMQALNFNSETVPQKSSLEEPDFYKTKIKLCILLHAFRIRAVTIDRVMSYLNAS
–	–	–	–	–	2.1	Recombinant murine IL-12 (ligand) chain 1: MWELEKDVYVVEVDWTPDAPGETVNLTCDTPEEDDITWTSDQRHGVIGSGKTLTITVKEFLDAGQYTCHKGGETLSHSHLLLHKKENGIWSTEILKNFKNKTFLKCEAPNYSGRFTCSWLVQRNMDLKFNIKSSSSSPDSRAVTCGMASLSAEKVTLDQRDYEKYSVSCQEDVTCPTAEETLPIELALEARQQNKYENYSTSFFIRDIIKPDPPKNLQMKPLKNSQVEVSWEYPDSWSTPHSYFSLKFFVRIQRKKEKMKETEEGCNQKGAFLVEKTSTEVQCKGGNVCVQAQDRYYNSSCSKWACVPCRVRS chain 2: RVIPVSGPARCLSQSRNLLKTTDDMVKTAREKLKHYSCTAEDIDHEDITRDQTSTLKTCLPLELHKNESCLATRETSSTTRGSCLPPQKTSLMMTLCLGSIYEDLKMYQTEFQAINAALQNHNHQQIILDKGMLVAIDELMQSLNHNGETLRQKPPVGEADPYRVKMKLCILLHAFSTRVVTINRVMGYLSSA
